# The supplement of paper PMC9112550, “Optimization of the antimicrobial peptide Bac7 by deep mutational scanning” (BMC Biology, 2022)
# Tested on: Escherichia coli TOP10
# Assay: shrunken log2 fold change of peptide-encoding DNA abundance (4.5 h post-induction vs induction); higher = less antimicrobial activity (less host growth inhibition)
# Conditions: time post-induction: 4.5 h; library: site-saturation at positions 5, 18, 19, 20
# 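Further: peptides expressed intracellularly from a pBAD plasmid library in pooled LB shake-flask culture, induced with 0.3% L-arabinose, DNA abundance read by NGS, three biological replicates, DESeq2 with apeglm shrinkage.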
row,Sequence,shrunken log2 fold change
1,RRIRMRPPRLPRPRPRPMSYPRP,-0.175
2,RRIRARPPRLPRPRPRPQNDPRP,5.63e-05
3,RRIRYRPPRLPRPRPRPFLGPRP,-0.0439
4,RRIRARPPRLPRPRPRPQQDPRP,0.108
5,RRIRGRPPRLPRPRPRPFSMPRP,0.169
6,RRIRMRPPRLPRPRPRPGAFPRP,0.611
7,RRIRGRPPRLPRPRPRPYCPPRP,-0.333
8,RRIRWRPPRLPRPRPRPGKRPRP,0.37
9,RRIRLRPPRLPRPRPRPSMNPRP,-0.345
10,RRIRSRPPRLPRPRPRPKDNPRP,-0.232
11,RRIRVRPPRLPRPRPRPDVWPRP,-0.0858
12,RRIRLRPPRLPRPRPRPADFPRP,-0.0534
13,RRIRYRPPRLPRPRPRPCGEPRP,-0.0504
14,RRIRTRPPRLPRPRPRPPVYPRP,-0.0771
15,RRIRNRPPRLPRPRPRPLNFPRP,-0.71
16,RRIRMRPPRLPRPRPRPLETPRP,2.02
17,RRIRHRPPRLPRPRPRPICMPRP,-0.00804
18,RRIRVRPPRLPRPRPRPLARPRP,0.0756
19,RRIRFRPPRLPRPRPRPTLCPRP,0.107
20,RRIRPRPPRLPRPRPRPNGFPRP,-0.216
21,RRIRPRPPRLPRPRPRPWAVPRP,-0.227
22,RRIRIRPPRLPRPRPRPYTDPRP,-0.0335
23,RRIRERPPRLPRPRPRPHLPPRP,-0.136
24,RRIRPRPPRLPRPRPRPTTYPRP,-0.141
25,RRIRYRPPRLPRPRPRPQNYPRP,-0.81

row,Sequence,shrunken log2 fold change
1,RRIRARPPRLPRPRPRPLKPPRP,0.464
2,RRIRTRPPRLPRPRPRPRDDPRP,0.107
3,RRIRCRPPRLPRPRPRPMDNPRP,-0.411
4,RRIRMRPPRLPRPRPRPGWTPRP,0.185
5,RRIRARPPRLPRPRPRPYRMPRP,0.0568
6,RRIRFRPPRLPRPRPRPKDKPRP,-0.223
7,RRIRMRPPRLPRPRPRPGLKPRP,0.363
8,RRIRHRPPRLPRPRPRPHKVPRP,-0.299
9,RRIRTRPPRLPRPRPRPTCSPRP,0.00373
10,RRIRMRPPRLPRPRPRPITKPRP,0.0745
11,RRIRPRPPRLPRPRPRPHRQPRP,-0.149
12,RRIRNRPPRLPRPRPRPYYTPRP,-1.27
13,RRIRKRPPRLPRPRPRPMCMPRP,-0.169
14,RRIRVRPPRLPRPRPRPSPMPRP,-0.261
15,RRIRQRPPRLPRPRPRPQVNPRP,-0.499
16,RRIRARPPRLPRPRPRPRTSPRP,0.382
17,RRIRYRPPRLPRPRPRPEVSPRP,-0.117
18,RRIRYRPPRLPRPRPRPHCNPRP,-0.366
19,RRIRIRPPRLPRPRPRPRIEPRP,-0.246
20,RRIRYRPPRLPRPRPRPSMAPRP,-0.572
21,RRIRRRPPRLPRPRPRPYFNPRP,-0.2
22,RRIRPRPPRLPRPRPRPAWSPRP,0.152
23,RRIRDRPPRLPRPRPRPGQTPRP,0.032
24,RRIRMRPPRLPRPRPRPGIQPRP,-0.105
25,RRIRGRPPRLPRPRPRPDKLPRP,-0.0186

row,Sequence,shrunken log2 fold change
1,RRIRLRPPRLPRPRPRPVWKPRP,-0.0133
2,RRIRYRPPRLPRPRPRPRTWPRP,-0.0833
3,RRIRARPPRLPRPRPRPRVTPRP,0.462
4,RRIRARPPRLPRPRPRPRMEPRP,0.539
5,RRIRMRPPRLPRPRPRPSCVPRP,0.22
6,RRIRGRPPRLPRPRPRPGQDPRP,0.605
7,RRIRLRPPRLPRPRPRPDFYPRP,-0.324
8,RRIRNRPPRLPRPRPRPKKQPRP,-0.0788
9,RRIRVRPPRLPRPRPRPKWMPRP,-0.0468
10,RRIRARPPRLPRPRPRPPHTPRP,0.739
11,RRIRYRPPRLPRPRPRPGTCPRP,-0.729
12,RRIRARPPRLPRPRPRPKEMPRP,0.324
13,RRIRYRPPRLPRPRPRPGPGPRP,0.304
14,RRIRYRPPRLPRPRPRPHNVPRP,-0.14
15,RRIRIRPPRLPRPRPRPHHGPRP,-0.0784
16,RRIRKRPPRLPRPRPRPNDQPRP,-0.101
17,RRIRDRPPRLPRPRPRPINQPRP,-0.389
18,RRIRVRPPRLPRPRPRPPIFPRP,-0.067
19,RRIRKRPPRLPRPRPRPRKGPRP,-0.0408
20,RRIRQRPPRLPRPRPRPHQTPRP,-0.0333
21,RRIRMRPPRLPRPRPRPWFMPRP,0.363
22,RRIRDRPPRLPRPRPRPRDKPRP,-0.0712
23,RRIRCRPPRLPRPRPRPHAVPRP,-0.559
24,RRIRWRPPRLPRPRPRPTPWPRP,0.48
25,RRIRCRPPRLPRPRPRPCYAPRP,-0.387
